Measured values: publication PMC11952106

Key:
[1] = biological target: act-EaCDCL^S (proteolytically activated short CDC-like protein of Elizabethkingia anophelis) (Elizabethkingia anophelis); assay: cryo-EM structure; membrane-inserted pore on POPC liposomes; act-EaCDCL^L (3.95 uM) then act-EaCDCL^S (7.9 uM) at 37°C; focused refinement, C30 symmetry, 2.87 Å
[2] = biological target: act-EaCDCL^S (proteolytically activated short CDC-like protein of Elizabethkingia anophelis) (Elizabethkingia anophelis); assay: cryo-EM structure; prepore-like oligomer stacked on the inserted pore; act-EaCDCL^L (3.95 uM) then act-EaCDCL^S (7.9 uM) on POPC liposomes at 37°C; focused refinement, C30 symmetry, 3.13 Å

**Q.** “act-EaCDCL^S (proteolytically activated short CDC-like protein of Elizabethkingia anophelis) (domain or fragment)” was tested. Which stoichiometry N [1] did it give?
**A.** 30 subunits

**Q.** And the stoichiometry N [2]?
**A.** 30 subunits
